Tests used:
hIR = hIR (Homo sapiens, UniProt P06213); assay: hIR activation / insulin signaling activation; assay type: cell-based
[1] = known property of shortened human insulin; cited from earlier work

Row | Substance | potency for hIR activation compared with human insulin (hIR; FIG. 7) | oligomeric state [1] | hIR activation activity compared with enzymatically synthetic DOI (hIR) | potency, fold weaker than human insulin (hIR; relative to human insulin)
1 | quadruple DOI mutant: DOI with A8 His, A9 Arg, B10 Glu, B20 Tyr; SEQ ID NO: 12 and SEQ ID NO: 3 | comparable to that of human insulin | – | – | –
2 | Des-octapeptide (B23-30) human insulin [DOI] | – | monomeric | same | 1,000 fold

From patent US20220389073A1, “Novel Mini-Insulin With Extended C-Terminal A Chain” (University of Utah Research Foundation, priority 2019, published 2022)
